Source: US20160237154A1 (SORRENTO THERAPEUTICS, published 2016)

Key:
[1] = biological target: T1, human CTLA4 (human, UniProt P16410 36-161, limits assumed); test: selection of human antibodies; method not described
T1 sequence (looked up): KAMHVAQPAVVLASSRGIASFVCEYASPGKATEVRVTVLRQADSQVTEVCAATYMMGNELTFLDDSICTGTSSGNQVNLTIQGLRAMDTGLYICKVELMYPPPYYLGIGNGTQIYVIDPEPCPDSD

[2] = biological target: T2, Recombinant human CTLA4/His (human, UniProt P16410 36-162, limits assumed); test: SPR (Biacore), antibody captured on anti-human Fc, CTLA4/His as analyte, 1:1 model
T2 construct: not shown: His tag
T2 sequence (looked up): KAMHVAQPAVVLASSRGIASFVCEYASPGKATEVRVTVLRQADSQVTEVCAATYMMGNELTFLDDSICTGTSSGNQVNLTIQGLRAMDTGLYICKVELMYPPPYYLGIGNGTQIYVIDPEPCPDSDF
Description: This example illustrates binding affinities of exemplary anti-CTLA4 antibodies disclosed herein. Affinities were determined using surface plasmon resonance (Biacore). Briefly, Anti-human Fc antibody (GE, BR-1008-39) was immobilized on CM5 sensor chip to approximately 1000 RU using standard NHS/EDC coupling methodology. Antibodies (about 10 μg/ml) were captured for 60 s at a flow rate 10 μl/min Recombinant human CTLA4/His was serially diluted in running buffer (HBS-EP). All measurements were conducted with a flow rate of 30 μL/min Surfaces were regenerated with 3M MgCl₂ for 60 s. A 1:1 (Langmuir) binding model was used to fit the data.

[3] = biological target: T1, human CTLA4; test: SPR (BiaCore)

B1: F3 (antibody, V domains shown)
VH: QMQLVQSGAEVKKPGASVTVSCKASGYTFTNSYIHWVRQAPGQGLEWVGRLIPSSGYTIFSQKLQGRVSMTRDTSMSTHYLTLSHLRPEDTAVYYCATDGGNYNLDFWGQGTLVTVSS
VL: QPVLTQPPSVSGSPGQSVTISCTGTSSDVGGYNYVSWYQQHPGKAPKLMIYDVSSRPSGVSNRFSGSKSDNTASLTISGLQAEDEADYYCSSYTSSSPYVFGTGTKVTVL
B1: binds [1].

B2: F5 (antibody, V domains shown)
VH: EVQLVQSGTEVKKPGSSVKVSCKASGGSFSNYAISWVRQAPGQGLEWMGRIIPILGIANYAQKFQGRVTITADKSTSTAYMELSSLGSEDTAVYYCARESGSYLDPWGQGTLVTVSS
VL: DIVMTQSPDSLAVSLGERATINCKSSQSVLYSPNNKNYLTWYQQKPGQPPKLLMYWASTRESGVPDRFSASGSGTDFTLTISSLQAEDVAVYYCQQSRSGPYTFGQGTKVEIK
B2: binds [1].

B3: F6 (antibody, V domains shown)
VH: EVQLVESGGGFVKPGRSLRLSCTASGFTFGDYGMSWFRQAPGKGLEWVGFIRSKAYGGTTDYAASVKGRFTISRDDSKSFAYLQMNSLKTEDTAVYYCTRGHYSASIWGQGTLVTVSS
VL: SYELMQPPSVSVAPGKTARITCGGNNIGSKSVHWYQQRPDQAPVLVIYSDNDRPSGIPERFSGSSSGHTATLTISRVEAGDEADYFCQVWDSNKNEWVFGGGTKLTVL
B3: binds [1].

B4: G1 (antibody, V domains shown)
VH: QVQLVQSGAEVKKPGASVKVSCKTSGNTFTNYYMHWVRQAPGQGLEWMGIMNPSGGSTSYAQKFQGRVTMTRDKSTSTVYMELSSLTSEDTAVYYCARDLFPHIYGNYYGMDIWGQGTTVTVSS
VL: QSVVTQPPSVSAAPGQNVTISCSGSSSNIGNNYVSWYQQLPGTAPKLLIYDNNRRASGIPDRFSGSKSGTSATLGITGLQTGDEADYYCGTWDRSLTTDWVFGGGTKLTVL
B4: binds [1].

B5: G2 (antibody, V domains shown)
VH: QVQLVESGGGLIQPGGSLRLSCAASGFTVSSAYMSWVRQAPGKGLEWVSVIYRGGTTYYADSVKGRFTISRDNSKNTLYLQMNSLRAEDTAVYYCRGEGGNSGDYFDYWGQGTTVTVSS
VL: NFMLTQPASVSGSPGQSITISCTGTSSDVGGYNFVSWYQQHPGKAPKLMIYDVSKRPSGVSNRFSGSKSGNTASLTISGLQAEDEADYYCSSYTSTNTLDVLFGGGTKLTVL
B5: binds [1].

B6: G3 (antibody, V domains shown)
VH: QVQLVQSGAEVKKPGASVKVSCKASGYTFTSYYMHWVRQAPGQGLEWMGIINPSGGSTSYAQKFQGRVTMTRDTSTSTVYMELSGLRSEDTAVYYCARYEHDYDSSKATTGYFDYWGQGTLVTVSS
VL: AIQLTQSPDSLAVSLGERATINCKSSQSILYRSNNKNYLAWYQQKPGQPPKLLIYWASTRESGVPDRFSGSGSGTDFTLTISSLQPEDFATYYCQQADRFPITFGQGTRLEIK
B6: binds [1].

B7: G5 (antibody, V domains shown)
VH: QVQLQQSGPGLVKPSQTLSLTCAISGDSVSSNSAAWNWIRQSPSRGLEWLGRTYYRSKWYNDYAVSVKSRITINPDTSKNQFSLQLNSVTPEDTAVYYCARDRWELPFDYWGQGTTVTVSS
VL: QSVVTQPPSVSAASGQKVIISCSGSNSNIVNNYVSWYQQLPGAAPKVLIYANNKRPSGIPDRFSGSKSGTSAFLAITGLQTGDEADYYCGTWDGSLDVDVFGGGTKLTVL
B7: binds [1].

B8: G12 (antibody, V domains shown)
VH: EVQLVESGAEVKKPGASVKVSCKASGYTFTSYGISWVRQAPGQGLEWMGWISAYNGNTNYAQKLQGRVTMTTDTSTSTAYMELRSLRSDDTAVYYCARGPGILTGYYFDYWGQGTLVTVSS
VL: EIVMTQSPSSLSASVGDRVTITCRASQGINYHLAWYQQKPGKAPKLLIYAASALQSGVPSRFSGTGSGTEFTLTISSLQPEDFATYYCQQFNTYPLTFGGGTKLEIK
B8: binds [1].

B9: D5 (antibody, V domains shown)
VH: QVQLQQSGPGLVKPSQTLSLTCAISGDSVSSNSAAWNWIRQSPSRGLEWLGRTYYRSKWYNDYAVSVKSRITINPDTSKNQFSLQLNSVTPEDTAVYYCAMHSGYRNYGMDVWGQGTTVTVSS
VL: QSVVTQPPSVSGAPGQRVTISCTGSSSNIGAGYDVHWYQQLPGTAPKLLIYGNSNRPSGVPDRFSGSKSGTSASLAITGLQAEDEADYYCQSYDSSLSGAVVFGGGTKLTVL
B9: binds [1].

B10: A2 (antibody, V domains shown)
VH: QMQLVQSGAEVKMPGSSVRISCKASGGSFTTHFINWVRQAPGQGLEWMGWMNPNTGNTGYAERFQGRVTLTRDTSISTAYLELSSLRSDDTAVYYCARNPAESGRFDPWGQGTLVTVSS
VL: QSALTQPPSASGSPGRSVTISCTGTSNNVGGYNYVSWYQQHPGKAPKLMIYEVTKRPSGVPDRFSGSKSGNTASLTVSGLQAEDEADYYCGTWDGSLNAYVFGTGTKVTVL
B10: binds [1].

B11: F7 (antibody, V domains shown)
VH: QVQLVQSGAEVKKPGASVKVSCKASGYAFDGHYMHWVRQAPGQRLEWMGWVDPHSGATNYAQNFQGGVTMTRDTSINTVYMELSSLKSDDTAVYYCARDFYDTSAKSGAFDIWGQGTMVTVSS
VL: AIQLTQSPSSVSASVGDRVTITCRASQGISSWLAWYQQKPGKAPKLLIYAASSLQSGVPSRFSGSGSGTDFTLTISSLQPEDFATYYCQQVNSFPWAFGQGTKVEIK
notes: captured by anti-human Fc antibody in SPR, so it has a human Fc; also called anti-CTLA4 antibody F7
Work on B11 yielded a Kd [2] of 0.738 nM, a koff [2] of 0.000217 s⁻¹ and a kon [2] of 294000 M⁻¹ s⁻¹.

B12: A4 (antibody, V domains shown)
VH: QVQLVESGGGLIQPGGSLRLSCAASGFSVSNNYMNWVRQAPGKGLEWVSVIYRGGSTYYADSVKGRFTISRDNSKNTLYLQMNSLRTEDTAVYYCLREGGTSGDYVNDWGQGTLVTVSS
VL: QSVVTQPPSVSGAPGQRVTISCTGSSSNIGAGYDVHWYQQLPGTAPKLLIYGNKNRPSGVPDRFSGSKSGTSASLAITGLQAEDEADYYCQAYDSSLSVVFGGGTKLTVL
B12: binds [1].

B13: E8 (antibody, V domains shown)
VH: QVQLVQSGAEVKKPGASVKVSCEASGYTFTNYYIHWLRQAPGQGLEWMGIINPSGGSTTYAQKFQGRITMTRDTSTNTLYMELSSLRSEDTAIYYCARRDCRGPSCYFAYWGQGTTVTVSS
VL: DIVMTQSPSSLSASVGDRVTITCRASQSISSYLNWYQQKPGKAPKLLIYAASSLQSGVPPRFSGSGSGTEFTLTISSLQPEDFATYYCQQANSFPPTFGQGTKVDIK
notes: also called antibody E8
B13 showed a Kd [3] of 58.9 nM, a koff [3] of 0.00488 s⁻¹ and a kon [3] of 82900 M⁻¹ s⁻¹.

B14: A7 (antibody, V domains shown)
VH: QMQLVQSGAEVKKPGASVKVSCKASGGTFSSYAISWVRQAPGQGLEWMGGIIPIFGTANYAQKFQGRVTITADESTSTAYMELSSLRSEDTAVYYCAREIGSYSSGWYRAFDIWGQGTMVTVSS
VL: DIVMTQSPSTLSASVGDRVTITCRASQSISSWLAWYQQKPGKAPQLLIYKASNLQSGVPSRFSGSGSVTEFSLTISSLLPEDFATYYCQQYSRPPWTFGQGTKVEIK
B14: binds [1].

B15: A12 (antibody, V domains shown)
VH: QVQLVESGGGLVQPGGSLRLSCAASGFTFSNYAMNWVRQTPGKGLEWVSVNYNDGFGTFNGYYADSVKGRFIISRDNSKNTLYLQMNSLRVDDTAVYYCARDSGVAGPYYFDNWGQGTLVTVSS
VL: AIQLTQSPSTLSASVGDRVTITCRASQSISSWLAWYQQKPGKAPKLLIYKASSLESGVPSRFSGSGSGTEFTLTISSLQPDDFATYYCQQYNSSPLTFGGGTKLEIK
B15: binds [1].

B16: B6 (antibody, V domains shown)
VH: QVQLVQSGAEVKKPGATVKVSCTASGFPFRNYAMHWVRQAPGQRLEWLGWIDAGNGNTKYSQTFHGRVTITRDTSASTAYMELSSLRSEDTAVYYCARDLLWPYLVTSGGAFDIWGQGTMVTVSS
VL: SYELMQPPSTSGTPGQRVTISCSGSSSNIGSHIVNWYQQFPGAAPQLLIYNDDQRPSGVPDRFSGSKSGASASLAISGLQSEDEAHYYCSAWDDILKGPVFGGGTKLTVL
B16: binds [1].

B17: C2 (antibody, V domains shown)
VH: QVQLVQSGAEVKKPGASVKVSCKASGYTFTTHYIHWVRQAPGQGLEWMAIINPNDGVKVYAQKFKGRLTVASDTSATTVYMDLSGLTSDDTAVYYCGREQHGGHHDYWGQGTLVTVSS
VL: QAGLTQPASVSGSPGQSITISCTGTSSDVGGYNYVSWYQQHPGKAPKLMIYDVTNRPSGVSNRFSGSKSGNTASLTISGLQAEDEADYYCKSYTSSSTPYVFGTGTKVTVL
B17: binds [1].

B18: F1 (antibody, V domains shown)
VH: EVQLVQSGAEVKKPGASVKVSCKASGYTFTSYGISWVRQAPGQGLEWMGWISAYNGNTNYAQKLQGRVTMTTDTSTSTAYMELRSLRSDDTAVYYCARVGYGGYFDYWGQGTLVTVSS
VL: SYELMQPPSVSKGLRQTATLTCTGNSNNVGNQGADWLQQHQGHPPKLLSYRNNDRPSGISERFSASRSGSTASLTITGLQPEDEADYYCLAWDSSLSAWVFGGGTKVTVL
B18: binds [1].
